Kd data for two molecules are collected here from paper PMC11931385, “Structural and functional analysis of cancer-associated missense variants in the retinoblastoma protein pocket domain” (The Journal of Biological Chemistry, 2025).

Numbering of substitutions follows the chain as printed. Numbers in names are those of the source. No end group written: not given here. TMR = tetramethyl rhodamine dye

Test in all cases: fluorescence polarisation; 37 °C, after the 25 °C reading ramped over 7 min to 37 °C and 2 min incubation; unlabeled Rb^P against 1.5 nM TMR-E2F1^TD or 7.5 nM TMR-E7^LxCxE; 25 mM Tris pH 8.0, 200 mM NaCl, 1 mM DTT, 0.1% Tween-20; apparent Kd
Details in all cases: both partners purified

One assay deals with T1, Rb^P M546I (human, UniProt P06400 380-788, M546I).
T1 construct: also called variant 25
T1 sequence (looked up): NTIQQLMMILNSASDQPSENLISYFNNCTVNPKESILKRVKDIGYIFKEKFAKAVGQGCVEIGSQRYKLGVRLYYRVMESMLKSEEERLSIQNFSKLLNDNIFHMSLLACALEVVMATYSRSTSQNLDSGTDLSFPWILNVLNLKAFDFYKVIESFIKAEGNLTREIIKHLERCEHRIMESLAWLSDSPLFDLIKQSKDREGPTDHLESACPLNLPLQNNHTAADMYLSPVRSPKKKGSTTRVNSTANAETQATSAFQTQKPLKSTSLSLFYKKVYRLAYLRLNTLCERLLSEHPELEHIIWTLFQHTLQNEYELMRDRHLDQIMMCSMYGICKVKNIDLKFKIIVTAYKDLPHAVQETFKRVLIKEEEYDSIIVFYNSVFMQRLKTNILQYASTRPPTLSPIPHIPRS

The target in another assay is T2, Rb^P A490V (human, UniProt P06400 380-788, A490V).
T2 construct: also called variant 17
T2 sequence (looked up): T1 sequence (looked up) with A111V, I167M

The target of another assay is T3, Rb^P K548N (human, UniProt P06400 380-788, K548N).
T3 construct: also called variant 26
T3 sequence (looked up): T1 sequence (looked up) with I167M, K169N

The target of a further assay is T4, Rb^P A525G (human, UniProt P06400 380-788, A525G).
T4 construct: also called variant 20
T4 sequence (looked up): T1 sequence (looked up) with A146G, I167M

In another assay the target is T5, Rb^P E440K (human, UniProt P06400 380-788, E440K).
T5 construct: also called variant 1
T5 sequence (looked up): T1 sequence (looked up) with E61K, I167M

B1: TMR-E2F1^TD, peptide of the E2F1 transactivation domain (peptide)
peptide: {TMR}-GEGIRDLFDCDFGDLTPLD
notes: also called E2F^TD; source: synthetic peptide, bought: GenScript
With B1, the Kd came out at 21 nM with Rb^P M546I; 87 nM with Rb^P A490V; 178 nM with Rb^P K548N; 65 nM with Rb^P A525G; 27 nM with Rb^P E440K.

B2: TMR-E7^LxCxE, LxCxE peptide of the E7 oncoprotein from HPV (peptide)
peptide: DLYCYEQLN
modifications: also: TMR label, position not given here
notes: source: synthetic peptide, bought: GenScript
On to B2, for which the Kd worked out at 13 nM in the assay with Rb^P M546I; 33 nM in the assay with Rb^P A490V; 15 nM with Rb^P K548N; 52 nM in the assay with Rb^P A525G; 13 nM with Rb^P E440K.
